The target of the experiment is Cnn-C^S186D scaffolds (Cnn-C-PReM^m with S186 phosphomimicked) (Drosophila melanogaster).

Substance “γ-tubulin37C-mCherry (from UniProt P42271 1-457) (natural protein)” came in with a recruitment of γ-tubulin to scaffolds in unfertilized eggs, fold over Cnn-C scaffolds of 3.8 fold.
